Measurements from the nanobody polyreactivity screen of Harvey et al. (2022).

assay: yeast display, Sf9 membrane polyspecificity reagent, FACS + sequencing; frameworks hold sequencing errors
How it was run: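 A nanobody's polyreactivity label depends on the gate it was sorted from. Yeast display cells were stained with 10% biotinylated, detergent-solubilized Sf9 membrane reagent for 1 hour at 4 °C, enriched on streptavidin microbeads and sorted by FACS. The low and high (top ~1%) gates were set on anti-HA fluorescence for expression and streptavidin fluorescence for reagent binding.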

Sequence | polyreactivity (PSR sort gate)
QVQLVETGGGLVQAGGSLRLSCAASGRIFGVNARGWYRQAPGKERELVAAIFSGGSTYYADSVKGRFTISRDNAKNTVYVEMNSLKPEDTAVYYCAARFARYDWSMYYWGQGTQVTVSS | low polyreactivity
QVQLVETGGGLVQAGGSLRLSCAASGRIFSPYALGWYRQAPGKERELVAAISYDDGITYYADSVKGRFTISRDNAKNTVYLQMNSLKPEDTAVYYCAADSVTRPAGDYWGQGTQVTVSS | low polyreactivity
QVQLVETGGGLVQAGGSLRLSCAASGRIFSVYAMGWYRQAPGKERDLVAGITSSGGSTYYADSVKGRFTISRDNAKNTVYLQMISLKPEDTAGYYCATRQVSRLYPYRYNYWGQGTQVTVSS | high polyreactivity
QVQLVETGGGLVQAGGSLRLSCAASGRTFAGNAMGWYRQAPGKERELVAGISSGGSTNYADSVKGRFTISRDNAKNTVYLQMNSLNPEDTAVYYCAKRYFRKGYPLFHYAYGYWGQVTQVTVSS | high polyreactivity
QVQLVETGGGLVQAGGSLRLSCAASGRTFAKYAMGWYRQAPGKERDLVASISGRGTNTYYADSVKGRFTISRDNAKNTVYLQMNSLKPEDTAVYYCAATYVYPYRDSHYFYWGQGTQVTVSS | high polyreactivity
QVQLVETGGGLVQAGGSLRLSCAASGRTFGNYAMGWYRQAPGKERELVAAITSAGRTYYADSVKGRFTISRDNAKNTVYLQMNSLKPEDTAVYYCAVSVIYWSGSQVSVEYYYWGQGTQVTVSS | low polyreactivity
QVQLVETGGGLVQAGGSLRLSCAASGRTFGPYVMGWYRQAPGKERELVAGITSGGSTNYADSVKGRFTISRDNAKNTVYLQMNSLKPEDTAVYYCNADYVIYFGLYEYWGQGTQVTVSS | low polyreactivity
QVQLVETGGGLVQAGGSLRLSCAASGRTFLYYAMGWYRPEPGKERELDAAIRRGSSTYYADSVKGRFTISRDKAKNTVYLQMNSLKPEDTAVYYCAARGRYRIGQGRYGKRYDYWGQGTQVTVSS | high polyreactivity
QVQLVETGGGLVQAGGSLRLSCAASGRTFRWYAMGWYRQAPGKERELVADISSVGSTDYADSVKGRFTISRDNAKNTVYLQMNSLKPEDTAVYYCAADFSPRRYHNRSFGYWGQGTQVTVSS | low polyreactivity
QVQLVETGGGLVQAGGSLRLSCAASGRTFYFNTMGWYRQAPGKERELVAAISSGVNTYYADSVKGRFTISRDNAKNTVYLQMNSLKPEDTAVYYCAASARTYVQSGYWGQGTQVTVSS | high polyreactivity
QVQLVETGGGLVQAGGSLRLSCAASGSIFPGNAMGWYRQAPGKERELVAVIDFSGASTYYADSVKGRFTISRDNAKNTVYLQMNSLKPEDTADYWGQGTQVTVSS | low polyreactivity
QVQLVETGGGLVQAGGSLRLSCAASGSIFTYYTMGWYRQAPGKERELVAAINGRGHSTYYADSVKGRFTISRDNAKNTVYLHMNSLKPEDTAVYYCARRRQYEYNYWGQGTQVTVSS | high polyreactivity
QVQLVETGGGLVQAGGSLRLSCAASGSIFVYYAMRWYRQAPGKERELVAAITIGASTDYADSVKGRFTISRDNAKNTVYLQMISVKPEDTAVYNCAADLYYGDYRTLPKADEYDYWGQGTQVTVSS | low polyreactivity
QVQLVETGGGLVQAGGSLRLSCAASGSIFWYYAMGWYRQAPGKERELVAAISAYGSSTYYADSVKGRFTISRDNAKNTVYLQMNSLKPEDTAVYYCAATYILYNDWLYHYFPEEYDYWGQGTQVTVSS | low polyreactivity
QVQLVETGGGLVQAGGSLRLSCAASGSTFESNTMGWYRQAPGKERELVAAISYSGGRTYYADSVKGRFTISRDNAKNTVYLQMNSLKPEDTAVYYCAARWSVSYQYWGQGSQVTVSS | high polyreactivity
QVQLVETGGGLVQAGGSLRLSCAASGSTFPRYAMVWSRQAPGKESEYVAVNWSGGSTYYADSVKGRFTISRDNAKNTVYLQMNSLKPEDTAVYYCAAEYHTLSKYSGYATHDYWGQGTQVTVSS | low polyreactivity
QVQLVETGGGLVQAGGSLRLSCAASGSTFSRYPMGWYRQAPGKEWELVAAITGTGGRTYYADSVKGRFTISRDNEKNTVYLLMNSLKPEDTAVYYCAAQRWTVKYNYWGQGTQVTVSS | high polyreactivity
QVQLVETGGGLVQAGGSLRLSCAASGSTFVRYTMGWYRQAPGKERELVAAISQRDSRTYYADSVKGRFTISRDNAKNTVYLQMNSLKPEDTAVYYCAARSWWYRSATYNYWGQGTQVTVSS | high polyreactivity
QVQLVETGGGLVQAGGSLRLSCAASGYIFGYVMGWYRQAPGKERELVAAITYSSGNTYYADSVKGRFTISRDNAKNTVYLQMNSLKPEDTAVYYCAKQAYYKGRLAYGYWGQGTQVTVSS | high polyreactivity
QVQLVETGGGLVQAGGSLRLSCAASGYTFDGYAMGWYRQAPGKERELVAAINSGGGTYYADSVKGRFTISRDNAKNTVYLLMNSQKPEDTAVYYCAAERVYSDMDYWGQGTQVTVSS | low polyreactivity
QVQLVETGGGLVQAGGSLRLSCAASVRIFFVYAMGWYRQAPGKERELVAAITYDDGDTFYADSVKGRFTISRDNAKNTVYLQMNSLKPEDTAVYYCAAEGYSYIQSDLDYWGQGTQVTVSS | high polyreactivity
QVQLVETGGGLVQAGGSLRLSCAAYGFTFEYNAMGWYRQAPGKERELVAAITTTGSTYYADSVKGRFTISRDNAKNTVYLQMNSLKPEDTAVYYCAADPVWRGYSYQFDYWGQGTQVTVSS | low polyreactivity
QVQLVETGGGLVQAGGSLRLSCADSGSIYQKNAMGWYRQPPGKERELVAAITSGGTTYYADSVKGRFTISRDNAKNTVYLQMYSLKPEDTAVYYCAKYHCRLSFSRYPYDYWGQGTQVTVSS | high polyreactivity
QVQLVETGGGLVQAGGSLRLSCADSGSTFPGNGMVWSRQAPGKERELVAGISSGGRTYYADSVKGRVTISRDNAKNTVYLQLNRLKPEDTAVYYCATEGDYFAKYDRMDYWGQGTQVTVSS | low polyreactivity
QVQLVETGGGLVQAGVSLRLSSAASGITIGKNAMGWYRQEPGKESELVAAITRDGGTNYADSVKGRFTISRDNSKNTVYLQMNRLKPEDTAVYYCAKRAYFYYGRYDYWGQGTQVTVSS | low polyreactivity
QVQLVETGGGLVQASGSLRLSSAASGRIFTRYAMGWYRQAHGKERELVPAITRGGSTYYADSVKGRFTISRDNAKNTVYLQMNSLKPEDTAVYYCAADWFGISVVRDPFDHWGQGTQVTVSS | high polyreactivity
QVQLVETGGGLVQEGGSLRLSCAASGRTFYSYAMGWYRQAPGKERELVARISSGGSTNYADSVKGRFTISRDNAKNTVYFQMNSLKPEDTAVYYCAAVRHRAMDYWGQGTQVTVSS | low polyreactivity
QVQLVETGGGVVQAGGSLRLSCAASGRTFGFNAMGWYIQAPGKERELVASITSTGGRTYYADSVKGLFTISRDNAKNTVYLQMNCLKPEDTAVYYCAAGSRSRAPYYRTIVDTYGYWGQGTQVTVSS | low polyreactivity
QVQLVETGGVLVQAGGSLRLSFAASGIIFSISALGGYRQAPGKERELVAAITYSGGRTYYADSVKGRFTISRDTAKNTVYLQMNSLKPEDTAVYYCAADYYYYGSYYPVEYWGQGTQVTVSS | high polyreactivity
QVQLVETRGGLVQAGGRLRLSCAASGGIFPVNAMGWYRQAPGKERELVAAISWSVGRTYYADSVKGRFTISRDNAKNTVYLQMISLKREDTAVYYCAAEWFGVYRRYKYDYCGQGTQVTVSS | low polyreactivity
